Experimental findings from US20040132121A1, “Method of identifying antibacterial compounds” (priority 2000, published 2004) are described below.

In the assay the target is Escherichia coli β subunit of DNA Polymerase III (β protein) (Escherichia coli), P0A988.

Several values for one entry are separate records, joined by “and”; a condition that tells them apart may be missing. Equal entries are not always repeated.

Escherichia coli β subunit of DNA Polymerase III (β protein) (Escherichia coli), P0A988, sequence (P0A988 whole entry): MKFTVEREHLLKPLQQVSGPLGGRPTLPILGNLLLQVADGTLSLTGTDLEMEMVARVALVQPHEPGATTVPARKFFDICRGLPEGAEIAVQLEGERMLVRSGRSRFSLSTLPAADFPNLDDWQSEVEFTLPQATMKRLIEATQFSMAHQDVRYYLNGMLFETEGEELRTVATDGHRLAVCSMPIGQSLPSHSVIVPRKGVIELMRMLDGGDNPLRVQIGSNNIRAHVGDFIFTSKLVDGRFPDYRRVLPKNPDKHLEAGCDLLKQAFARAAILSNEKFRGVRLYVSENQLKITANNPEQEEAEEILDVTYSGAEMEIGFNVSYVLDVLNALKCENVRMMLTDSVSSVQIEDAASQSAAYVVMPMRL

Take EAQLDLFDS (modifications not checked) [peptide 112d … (UmuC1, native flanking sequences)]: the IC50 was 1000 nM and 3600 nM.

The IC50 is the concentration that inhibits the measured activity by half.
